# Where a chain is given by its changes, count along the chain named. Names may count otherwise.
# T1: EsCas13d, nuclease-dead (Eubacterium siraeum, UniProt B0MS50, R295A;H300A;R849A;H854A)
# T1 sequence: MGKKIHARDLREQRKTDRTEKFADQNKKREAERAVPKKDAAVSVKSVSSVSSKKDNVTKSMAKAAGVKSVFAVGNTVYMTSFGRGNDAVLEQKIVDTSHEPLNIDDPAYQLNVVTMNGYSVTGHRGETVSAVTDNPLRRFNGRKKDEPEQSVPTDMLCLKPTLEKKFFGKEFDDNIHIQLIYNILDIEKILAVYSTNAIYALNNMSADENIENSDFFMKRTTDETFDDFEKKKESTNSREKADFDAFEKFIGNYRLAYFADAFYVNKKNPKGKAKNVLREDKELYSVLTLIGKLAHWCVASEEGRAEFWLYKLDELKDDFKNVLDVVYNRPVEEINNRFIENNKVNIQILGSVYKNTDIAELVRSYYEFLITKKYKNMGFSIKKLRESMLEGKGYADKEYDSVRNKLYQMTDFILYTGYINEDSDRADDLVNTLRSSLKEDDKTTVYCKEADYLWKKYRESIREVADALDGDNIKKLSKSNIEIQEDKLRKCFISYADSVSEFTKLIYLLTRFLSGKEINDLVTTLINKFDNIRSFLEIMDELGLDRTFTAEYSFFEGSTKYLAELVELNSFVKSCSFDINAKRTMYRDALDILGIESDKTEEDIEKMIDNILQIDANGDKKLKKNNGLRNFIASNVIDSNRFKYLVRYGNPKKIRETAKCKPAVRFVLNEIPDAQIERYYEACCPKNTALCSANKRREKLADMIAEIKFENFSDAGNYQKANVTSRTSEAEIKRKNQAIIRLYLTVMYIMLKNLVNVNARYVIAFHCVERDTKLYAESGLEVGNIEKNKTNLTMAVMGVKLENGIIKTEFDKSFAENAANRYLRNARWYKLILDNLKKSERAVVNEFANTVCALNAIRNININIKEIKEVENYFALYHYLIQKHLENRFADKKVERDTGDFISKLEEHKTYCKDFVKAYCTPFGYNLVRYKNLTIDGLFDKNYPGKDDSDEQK
# B1: target 1 G5C,U19C (mixed)
# RNA 1: CACCCGUGCAAAAAUGCAGGGGUCUAAAACUGAGCGGAUAACCUCUCUAUGG
# RNA 2: GGGAAUGGAUCCACAUCUACGAAUUCGUACCACAGAGAGGUUAUCCCCUCACCGAGAUCGGAAGAGCACACGU
# B2: target 1 C2A,U8C (mixed)
# RNA 1: B1 RNA 1
# RNA 2: B1 RNA 2 with C33U, U44C, C47G, C50A
# B3: target 1 A1C,G5U (mixed)
# RNA 1: B1 RNA 1
# RNA 2: B1 RNA 2 with C33U, C47U, A51C
# B4: target 1 insC 3' of 20,insU 3' of 14 (mixed)
# RNA 1: B1 RNA 1
# RNA 2: GGGAAUGGAUCCACAUCUACGAAUUCGUACCACUAGAGAUGGUUAUCCGCUCACCGAGAUCGGAAGAGCACACGU
# B5: target 1 C2U,U19G (mixed)
# RNA 1: B1 RNA 1
# RNA 2: B1 RNA 2 with C33G, C47G, C50U
# B6: target 1 U10G,U11C (mixed)
# RNA 1: B1 RNA 1
# RNA 2: B1 RNA 2 with C33U, U41C, U42G, C47G
# B7: target 1 insC 3' of 13,insG 3' of 2 (mixed)
# RNA 1: B1 RNA 1
# RNA 2: GGGAAUGGAUCCACAUCUACGAAUUCGUACCAUAGAGAGCGUUAUCCGCUCGACCGAGAUCGGAAGAGCACACGU
# B8: target 1 insA 3' of 22,insC 3' of 9 (mixed)
# RNA 1: B1 RNA 1
# RNA 2: B4 RNA 2 with C31A, A32C, C33A, U40G, G42U, U44A, A45C
# B9: target 1 insU 3' of 18,insA 3' of 4 (mixed)
# RNA 1: B1 RNA 1
# RNA 2: B7 RNA 2 with G35U, A36G, G37A, A38G, G39A, C40G, U50A, C51U, G52C
# B10: target 1 insG 3' of 8,insG 3' of 8 (mixed)
# RNA 1: B1 RNA 1
# RNA 2: GGGAAUGGAUCCACAUCUACGAAUUCGUACCAUAGAGAGGUUAUGGCCGCUCACCGAGAUCGGAAGAGCACACGU
# B11: target 1 insC 3' of 16,insG 3' of 3 (mixed)
# RNA 1: B1 RNA 1
# RNA 2: B7 RNA 2 with G37C, A38G, G39A, C40G, C51G, G52C
# B12: target 1 C6A,A14C (mixed)
# RNA 1: B1 RNA 1
# RNA 2: B1 RNA 2 with C33U, A38C, C46A, C47G
# B13: target 1 insG 3' of 22,insA 3' of 19 (mixed)
# RNA 1: B1 RNA 1
# RNA 2: B4 RNA 2 with C31G, A32C, C33A, G36A, A37G, G38A, A39G, U40A
# B14: target 1 C2U,C22A (mixed)
# RNA 1: B1 RNA 1
# RNA 2: B1 RNA 2 with C30A, C33U, C47G, C50U
# B15: target 1 insU 3' of 20,insA 3' of 5 (mixed)
# RNA 1: B1 RNA 1
# RNA 2: B4 RNA 2 with C33U, U40G, G42U, U44A, A45U, U46C, C48G, G49A
# B16: target 1 insU 3' of 21,insG 3' of 21 (mixed)
# RNA 1: B1 RNA 1
# RNA 2: B4 RNA 2 with A32U, C33G, U34A, A35U, G36A, A37G, G38A, A39G, U40A
# B17: target 1 insG 3' of 9,insG 3' of 2 (mixed)
# RNA 1: B1 RNA 1
# RNA 2: B7 RNA 2 with C40G, G41U, U43A, A44G
# B18: target 1 insA 3' of 8,insU 3' of 5 (mixed)
# RNA 1: B1 RNA 1
# RNA 2: B10 RNA 2 with G45A, G46C, C48G, G49U
# B19: target 1 del16,del19 (mixed)
# RNA 1: B1 RNA 1
# RNA 2: GGGAAUGGAUCCACAUCUACGAAUUCGUACCAAGGAGGUUAUCCGCUCACCGAGAUCGGAAGAGCACACGU
# B20: target 1 del5,del15 (mixed)
# RNA 1: B1 RNA 1
# RNA 2: B19 RNA 2 with A33U, G34A, G37A, U39G, A41U, U42A, C43U, G45C
# B21: target 1 C6A,U19C (mixed)
# RNA 1: B1 RNA 1
# RNA 2: B1 RNA 2 with C46A, C47G
# B22: target 1 C7G,U19A (mixed)
# RNA 1: B1 RNA 1
# RNA 2: B1 RNA 2 with C33A, C45G, C47G
# B23: target 1 insC 3' of 22,insC 3' of 18 (mixed)
# RNA 1: B1 RNA 1
# RNA 2: B4 RNA 2 with A32C, C33A, G36C, A37G, G38A, A39G, U40A
# B24: target 1 C7A,C21U (mixed)
# RNA 1: B1 RNA 1
# RNA 2: B1 RNA 2 with C31U, C33U, C45A, C47G
# B25: target 1 insU 3' of 15,insG 3' of 4 (mixed)
# RNA 1: B1 RNA 1
# RNA 2: B7 RNA 2 with A38U, G39A, C40G, U50G, C51U, G52C
# B26: target 1 insU 3' of 14,insG 3' of 3 (mixed)
# RNA 1: B1 RNA 1
# RNA 2: B7 RNA 2 with G39U, C40G, C51G, G52C
# B27: target 1 C6A,A14U (mixed)
# RNA 1: B1 RNA 1
# RNA 2: B1 RNA 2 with C33U, A38U, C46A, C47G
# B28: target 1 insU 3' of 15,insG 3' of 9 (mixed)
# RNA 1: B1 RNA 1
# RNA 2: B10 RNA 2 with A38U, G39A, U41G, A43U, U44A, G46U
# B29: target 1 C6G,A20U (mixed)
# RNA 1: B1 RNA 1
# RNA 2: B1 RNA 2 with A32U, C33U, C46G, C47G
# B30: target 1 A1U,G5U (mixed)
# RNA 1: B1 RNA 1
# RNA 2: B1 RNA 2 with C33U, C47U, A51U
# B31: target 1 C7U,G17U (mixed)
# RNA 1: B1 RNA 1
# RNA 2: B1 RNA 2 with C33U, G35U, C45U, C47G
# B32: target 1 insA 3' of 15,insG 3' of 14 (mixed)
# RNA 1: B1 RNA 1
# RNA 2: B10 RNA 2 with G39A, U41G, U42G, A43U, G45A, G46U
# B33: target 1 insU 3' of 20,insG 3' of 7 (mixed)
# RNA 1: B1 RNA 1
# RNA 2: B4 RNA 2 with C33U, U40G, G42U, U44A, A45U, U46C, C47G
# B34: target 1 insG 3' of 19,insA 3' of 19 (mixed)
# RNA 1: B1 RNA 1
# RNA 2: B4 RNA 2 with C33U, U34G, G36A, A37G, G38A, A39G, U40A
# Biological target: T1, EsCas13d, nuclease-dead
# Test: crRNA (strand 1, pre-loaded); Mg2+; 40 mM Tris-HCl pH 7.5, 150 mM NaCl, 6 mM MgCl2, 1 mM DTT, 0.1% Tween-20, 0.2 mg/ml BSA; 25 C; 10 min per concentration, then washed
# Conditions: tags: His6-TwinStrep-SUMO cleaved; N-terminal SNAP kept (SNAP-Surface 488); label: 3' end held by stalled T7 RNA polymerase
row,Binder,Kd [nM]
1,B1,32 ± 6
2,B2,5.2 ± 0.4
3,B3,33 ± 4
4,B4,5.5 ± 0.8
5,B5,52 ± 4
6,B6,14.1 ± 0.6
7,B7,11.4 ± 0.5
8,B8,14.4 ± 0.6
9,B9,20.9 ± 1.7
10,B10,45.3 ± 3.2
11,B11,50 ± 8
12,B12,11.7 ± 0.5
13,B13,63 ± 10
14,B14,16.2 ± 1.2
15,B15,12.2 ± 0.9
16,B16,54 ± 6
17,B17,17.2 ± 1

row,Binder,Kd [nM]
1,B18,22 ± 1.8
2,B19,73 ± 20
3,B20,27.3 ± 2.6
4,B21,21.3 ± 1.9
5,B22,56 ± 9
6,B23,41 ± 16
7,B24,6.56 ± 0.31
8,B25,13.5 ± 1.3
9,B26,34 ± 4
10,B27,54 ± 9
11,B28,13 ± 0.6
12,B29,40.5 ± 2.5
13,B30,73 ± 11
14,B31,19.7 ± 1.8
15,B32,10.6 ± 1.2
16,B33,11.8 ± 0.6
17,B34,50 ± 7
